Test results taken from patent publication US20200239573A1 (CRESCENDO BIOLOGICS, published 2020).
Values joined by “and” are separate entries in the source; they are usually repeats but may differ in a detail not shown here. Equal values may be shown once.

What was measured:
[1] = molecular target: T1, recombinant human PD-1 Fc chimera (human, UniProt Q15116 25-167); assay: HTRF inhibition; strep-tagged PD-L1 vs PD-1-Fc
T1 construct: Bought protein; also called human PD-1-huFc; huPD-1-Fc; not shown: human Fc
Procedure: All samples and reagents were prepared in HTRF assay buffer containing PBS, 0.1% (w/v) BSA and 0.4M Potassium Fluoride. […] Total binding controls containing periplasmic extract sample buffer and non-specific binding controls containing excess untagged competitor were set up on each plate for data normalisation. Time-resolved fluorescent emission at 620 nm and 665 nm was measured following excitation at 337 nm on the BMG PHERAstar plate reader. Data was expressed as a % of the total binding control (% control) after subtraction of the background signal determined from the non-specific binding control wells.

[2] = molecular target: T2, human PD-1 expressed on cells (CHO human PD-1 cells) (human, UniProt Q15116 21-288); assay: FMAT inhibition; 100 pM PD-L1-Fc on CHO human PD-1 cells
T2 construct: also called CHO TREX human PD-1 cell line; CHO PD-1
Procedure: All reagents and serially diluted VH were prepared in FMAT assay buffer. […] Plates were incubated for 2 hours at room temperature then fluorescence measured in the FL2 (502 nm-537 nm) and FL5 (677-800 nm) channels on the Mirrorball plate reader (TTP) following excitation at 488 nm and 640 nm. Data was expressed as a % of the total binding control (i.e. % control) after subtraction of the background signal determined from the non-specific binding control wells.

[3] = molecular target: T2, human PD-1 expressed on cells (CHO …); assay: FMAT epitope competition on CHO human PD-1 cells; competitor 1 nM 1.1-Strep
Procedure: For the epitope competition assay reagents were prepared in FMAT assay buffer. […] Plates were incubated for a minimum of 1.5 hours at room temperature then fluorescence measured in the FL2 (502 nm-537 nm) and FL5 (677-800 nm) channels on the Mirrorball plate reader (TTP) following excitation at 488 nm and 640 nm. Data was expressed as a % of the total binding control (i.e. % control) after subtraction of the background signal determined from the non-specific binding control wells.

[4] = molecular target: T2, human PD-1 expressed on cells (CHO …); assay: cell-based or functional assay
[5] = molecular target: T1, recombinant human PD-1 Fc chimera; assay: SPR Biacore T200, PD-1-huFc amine-coupled, single cycle kinetics
Procedure: Binding kinetics of certain VH single domain antibodies binding to human PD-1-huFc were measured by surface plasmon resonance (SPR) technology using Biacore T200 instrument (GE Healthcare). Recombinant human PD-1-huFc was immobilized by standard amine coupling to CM5 sensorschip (GE Healthcare) using in range of 0.1-0.01 mg/ml solution of antigen in 10 mM sodium acetate at pH 5.5. For the reference flow cell, a blank immobilisation was carried out. Single cycle kinetics assays were used to study the interaction, a five point, three-fold dilution series of each Humabody® was made with a top concentration of 30 nM. The binding kinetics were followed by flowing the Humabody® over the chip surface in HBS EP+ buffer at a flow rate of 30 μl/min. The contact time for each of the association steps was 180 seconds and the dissociation step was varied between 1200-3600 seconds. The data was fitted to a 1:1 binding model after double reference subtraction using the Biacore T200 Evaluation software.

[6] = molecular target: T3, Strep tagged recombinant human PD-1 (human, UniProt Q15116 25-170, limits assumed); assay: SPR Biacore T200, strep-tagged PD-1 amine-coupled, single cycle kinetics
T3 construct: the whole entry is named; also called strep tagged human PD-1; not shown: Strep tag
Procedure: Single cycle kinetics assays were used to study the interaction between human PD-1 with Humabody® on a Biacore T200 instrument (GE Healthcare). Strep tagged recombinant human PD-1 was amine coupled to one flow cell of a CM-5 chip to create a low density surface (14 RU) using standard Biacore reagents. For the reference flow cell, a blank immobilisation was carried out. A five-point, three-fold dilution series of each Humabody® was made with a top concentration of 25 nM. The binding kinetics were followed by flowing the Humabody® over the chip surface in HBS EP+ buffer at a flow rate of 30 μl/min. The contact time for each of the association steps was 180 seconds and the dissociation step was 3300 seconds. The data was fitted to a 1:1 binding model after double reference subtraction using the Biacore T200 Evaluation software.

T3 sequence (Q15116 25-170 limits assumed): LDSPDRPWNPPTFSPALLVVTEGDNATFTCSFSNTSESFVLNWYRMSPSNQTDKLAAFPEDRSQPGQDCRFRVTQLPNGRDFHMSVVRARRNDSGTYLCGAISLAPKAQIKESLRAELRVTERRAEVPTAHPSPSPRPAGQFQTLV
T2 sequence (Q15116 21-288): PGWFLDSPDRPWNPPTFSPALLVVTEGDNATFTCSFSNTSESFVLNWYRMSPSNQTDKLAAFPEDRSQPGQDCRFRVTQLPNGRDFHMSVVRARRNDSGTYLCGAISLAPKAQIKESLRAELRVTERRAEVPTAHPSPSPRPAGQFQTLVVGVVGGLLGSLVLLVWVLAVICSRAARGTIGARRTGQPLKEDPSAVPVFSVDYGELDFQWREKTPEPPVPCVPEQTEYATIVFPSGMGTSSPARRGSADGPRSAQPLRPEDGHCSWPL
T1 sequence (Q15116 25-167 limits assumed, change not shown): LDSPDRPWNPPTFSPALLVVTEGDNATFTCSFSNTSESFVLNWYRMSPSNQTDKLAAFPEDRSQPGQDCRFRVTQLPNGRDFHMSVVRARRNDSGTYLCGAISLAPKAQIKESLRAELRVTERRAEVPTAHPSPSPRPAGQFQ

Binder	IC50 [1] [nM]	IC50 [3] [nM]	Reporter Assay EC50 [4] [nM]	other results
Humabody® 1.12 (VHH, human VH single domain antibody) VHH: EVQLLESGGGVVKPGGSLRLSCAASGFTFSDYYMGWIRQAPGKGLEWISYISSSGSTIYYADSVKGRFTISRDNAKNSLYLQMNSLRAEDTAVYYCAREAPLRLGESPHDAFDIWGQGTMVTVSS	4.18			
Humabody® 1.15 (VHH, human VH single domain antibody) VHH: QVQLVESGGGLVKPGGSLRLSCAASGFTFSDNSMSWIRQAPGKGLEWVSYISSSGSTIYYADSVKGRFTISRDNAKNSLYLQMNTLRAEDTAVYYCAKEAPLRLGESPHDAFDIWGQGTMVTVSS	3.78			
Humabody® 1.3 (VHH, human VH single domain antibody) VHH: QVQLVESGGGLVKPGGSLRLSCAASGFTFSDYTMTWMRQAPGKGLEWVSYISTGGSIKYYTDSVKGRFTISRDNAKNSLYLQMNSLRADDTAVYYCAREAPLRLGESPHDAFDIWGQGTMVTVSS	2.3			
Humabody® 1.6 (VHH, human VH single domain antibody) VHH: EVQLLESGGGLVKPGGSLRLSCAASGFTFSDYTMTWMRQAPGKGLEWVSYISTGGTIKYYTDSVKGRFTISRDNAKNSLYLQMSSLRADDTAVYYCAREAPLRLGESPHDAFDIWGQGTMVTVSS	13.1			
Humabody® 1.8 (VHH, human VH single domain antibody) VHH: EVQLVESGGGLVKPGGSLRLSCAASGFTFSDYTMTWMRQAPGKGLEWVSYISTGGSIKYYTDSVKGRFTISRDNAKNSLYLQMNSLRAGDTAVYYCAREAPLRLGESPHDAFDIWGQGTMVTVSS	28.8			
Humabody® 1.7 (VHH, human VH single domain antibody) VHH: EVQLVESGGGLVKPGGSLRLSCAASGFTFSDYTMTWMRQAPGKGLEWVSYISTGGTIKYYTDSVKGRFTISRDNAKNSLYLQMNSLRADDTAVYYCAREAPLRLGESPHDAFDIWGQGTMVTVSS	4.4			
Humabody® 1.93 (VHH, human VH single domain antibody) VHH: EVQLVESGGGLVKPGGSLRLSCAASGFTFSDASMTWMRQAPGKGLEWVSYISSGGGVKFYADSVKGRFTISRDNAKNSLYLQMNSLRAEDTAVYYCAREAPLRLGESPHDAFDISGQGTMVTVSS		1.5		IC50 [2]: 2.12 nM
Humabody® 1.42 (VHH, human VH single domain antibody) VHH: QVQLVESGGGLVKPGGSLRLSCAASGFTFSDNSMTWMRQAPGKGLEWVSYISSGGGVKFYADSVKGRFTISRDNAKNSLYLQMNSLRADDTAVYYCAREAPLRLGESPHDAFDIWGQGTMVTVSS		3.5	8.6	Kd [5]: 0.0505 nM; koff [5]: 2.69e-05 s⁻¹; kon [5]: 532000 M⁻¹ s⁻¹
Humabody® 1.51 (VHH, human VH single domain antibody) VHH: QVQLVESGGGLVKPGGSLRLSCAASGFTFSDSSMTWMRQAPGKGLEWVSYISSGGAVKFYTDSVKGRFTISRDNAKNSLYLQMNSLRADDTAVYYCAREAPLRLGESPHDAFDIWGQGTMVTVSS		4.7	23	Kd [5]: 0.317 nM; koff [5]: 5.98e-05 s⁻¹; kon [5]: 189000 M⁻¹ s⁻¹
Humabody® 1.89 (VHH, human VH single domain antibody) VHH: EVQLVESGGGLVKPGGSLRLSCAASGFTFSDYSMTWMRQAPGKGLEWVSYISSGGGVKFYADSVKGRFTISRDNAKNSLYLQMNSLRAEDTAVYYCAREAPLRLGESPHDAFDISGQGTMVTVSS		2.4	19	Kd [6]: 0.0342 nM; koff [6]: 5.6e-05 s⁻¹; kon [6]: 1.6e+06 M⁻¹ s⁻¹
Humabody® 1.14 (VHH, human VH single domain antibody) VHH: EVQLVESGGGLVQPGRSLRLSCAASGFTFSDYTMTWMRQAPGKGLEWVSYISTGGTIKYYTDSVKGRFTISRDNAKNSLYLQMNSLRADDTAVYYCAREAPLRLGESPHDAFDIWGQGTMVTVSS	28.5			
Humabody® 1.58 (VHH, human VH single domain antibody) VHH: QVQLVESGGGLVKPGGSLRLSCAASGFTFSDNTMTWMRQAPGKGLEWVSYISTGGGVKFYADSVKGRFTISRDNAKNSLYLQMNSLRADDTAVYYCAREAPLRLGESPHDAFDIWGQGTMVTVSS		4.6	7.1	
Humabody® 1.11 (VHH, human VH single domain antibody) VHH: EVQLLESGGGLVKPGGSLRLSCAASGFTFSDYDMTWIRQAPGKGQEWVSYISRGGSTKYYADSVKGRFTISRDNAKNSLYLQMNSLRAEDTAVYYCAREAPLRLGETPHDAFDIWGQGTMVTVSS	5.16			
Humabody® 1.90 (VHH, human VH single domain antibody) VHH: EVQLVESGGGLVKPGGSLRLSCAASGFTFSDVSMTWMRQAPGKGLEWVSYISSGGGVKFYADSVKGRFTISRDNAKNSLYLQMNSLRAEDTAVYYCAREAPLRLGESPHDAFDISGQGTMVTVSS		1.6		IC50 [2]: 3 nM
Humabody® 1.44 (VHH, human VH single domain antibody) VHH: QVQLVESGGGLVKPGGSLRLSCAASGFTFSDNSMTWMRQAPGKGLEWVSYISSGGAVKFYADSVKGRFTISRDNAKNSLYLQMNSLRADDTAVYYCAREAPLRLGESPHDAFDIWGQGTMVTVSS		1.9	41	Kd [5]: 0.2 nM and 0.17 nM; koff [5]: 4.18e-05 s⁻¹ and 4e-05 s⁻¹; kon [5]: 209000 M⁻¹ s⁻¹ and 235000 M⁻¹ s⁻¹
Humabody® 1.80 (VHH, human VH single domain antibody) VHH: EVQLVESGGGLVKPGGSLRLSCAASGFTFSDSSMTWMRQAPGKGLEWVSYISSGGGVKFYADSVKGRFTISRDNAKNSLYLQMNSLRAEDTAVYYCAREAPLRLGESPHDAFDISGQGTMVTVSS				IC50 [2]: 1.82 nM; Kd [6]: 0.0297 nM; koff [6]: 5.2e-05 s⁻¹; kon [6]: 1.76e+06 M⁻¹ s⁻¹
Humabody® 1.95 (VHH, human VH single domain antibody) VHH: EVQLVESGGGLVKPGGSLRLSCAASGFTFSDGSMTWMRQAPGKGLEWVSYISSGGGVKFYADSVKGRFTISRDNAKNSLYLQMNSLRAEDTAVYYCAREAPLRLGESPHDAFDISGQGTMVTVSS		2		IC50 [2]: 3.59 nM
Humabody® 1.91 (VHH, human VH single domain antibody) VHH: EVQLVESGGGLVKPGGSLRLSCAASGFTFSDQSMTWMRQAPGKGLEWVSYISSGGGVKFYADSVKGRFTISRDNAKNSLYLQMNSLRAEDTAVYYCAREAPLRLGESPHDAFDISGQGTMVTVSS		1.4		IC50 [2]: 3.56 nM
Humabody® 1.59 (VHH, human VH single domain antibody) VHH: QVQLVESGGGLVKPGGSLRLSCAASGFTFSDNSMSWMRQAPGKGLEWVSYISSGGSVKFYADSVKGRFTISRDNAKNSLYLQMNSLRADDTAVYYCAREAPLRLGESPHDAFDIWGQGTMVTVSS		7.8	24	
Humabody® 1.10 (VHH, human VH single domain antibody) VHH: QVQLVESGGGLVKPGGSLRLSCAASGFTFSDYTMSWMRQAPGKGLEWISYISLGGNTKYYTDSVKGRFTISRDNAKNSLYLQMNSLRADDTAVYYCAREAPLRLGESPHDAFDIWGQGTMVTVSS	54.1			
Humabody® 1.43 (VHH, human VH single domain antibody) VHH: QVQLVESGGGLVKPGGSLRLSCAASGFTFSDSSMTWMRQAPGKGLEWVSYISSGGGVIFYADSVKGRFTISRDNAKNSLYLQMNSLRADDTAVYYCAREAPLRLGESPHDAFDIWGQGTMVTVSS		1.3	12	Kd [5]: 0.0681 nM; koff [5]: 2.79e-05 s⁻¹; kon [5]: 410000 M⁻¹ s⁻¹
